Test results as given in patent US20220143148A1, “COMPOSITIONS AND METHODS FOR MODULATING CGRP SIGNALING TO REGULATE INTESTINAL INNATE LYMPHOID CELLS” (The Broad Institute, Inc., priority 2019, published 2022).

Test system: small intestinal immune cells
Assay: Droplet-based scRNA-seq of small intestinal immune cells (LP and PP), OVA vs PBS, clustering and differential expression
Assay type: in vivo, mouse
Details: cluster ID 6, PP, OVA vs PBS
Source text: To comprehensively characterize small intestinal immune cells, Applicants generated scRNA-Seq profiles for 58,067 immune cells collected from lamina propria (LP) and Peyer's patch (PP) regions at steady state and after induction of a type 2 inflammatory reaction to ovalbumin (OVA) (Brandt et al., 2003) (FIGS. 1A and 8A). To ensure sufficient representation of rare cells, Applicants combined a normalization strategy—removing by flow sorting either a portion of IgD+ naïve B cells, which are the most abundant cell type in PPs, or all CD19+ and CD3+ T cells (FIG. 8B, Methods)—with profiling of a sufficiently large number of cells number (P>0.99 to recover at least 15 cells from each cluster, Methods) by massively parallel scRNA-seq (Haber et al., 2017) (Methods). Applicants obtained 36,797 and 21,270 high quality cells passing initial filtering (Methods) from PP and LP regions, respectively.
Overall, Applicants annotated 27 cell subsets across the two compartments, spanning T cells, B cells, ILCs, dendritic cells (DCs), myeloid cells and stromal cells, in frequencies ranging from 0.07% to 14%. Briefly, Applicants first partitioned the cells from the PP regions by unsupervised clustering (Methods) into 46 clusters, retained the 97% of cells that were robustly assigned cell identities in each cluster (Methods), assigned the cells from the LP regions to the 46 clusters using a classifier (Methods), and visualized the data with scvis (Ding et al., 2018), a deep generative model-based method (FIGS. 1B and 8C, Methods). Next, Applicants identified genes that were differentially expressed between the cells in each cluster and the remaining cells (Table 1, Methods), as well as between pairs of clusters (Table 2), to elucidate identities of similar cell types/states. Applicants excluded from downstream analysis clusters mostly consisting of contaminants from epithelium, likely doublets, or cells with a small number of Unique Molecular Identifiers (UMIs) (FIGS. 1C and 8D), or lacking distinct markers (Methods). Altogether, Applicants retained 27 clusters spanning 85% of the cells and each associated with distinct marker genes (FIG. 8E, Methods).
To induce allergic reaction to OVA, 6 to 7 weeks old mice were sensitized twice, two weeks apart, with 50 μg of OVA plus 1 mg of aluminum potassium sulfate adjuvant via intraperitoneal injection. Two weeks later, mice were orally administered with 50 mg of OVA on every other day for a total of five times. 1 μg of α-CGRP peptide was administered simultaneously when indicated. Mice were deprived of food for 3-4 hours in cages with wood chip bedding for limiting antigen degradation in the stomach before each intragastric challenge.
Isolation of cells from Peyer's patches (PPs). Peyer's patches (PPs) were carefully dissected from the small intestine under a stereo microscope using a fine scissor, pierced once with a fine forcep. Tissues were digested in freshly made digestion buffer (RPMI-1640 containing 100 μg/ml Liberase™ and 50 μg/ml DNase I at 37° C. on a roto-mixer. After 15 min, tissues were very gently mixed using a 1 ml pipette. The supernatant was collected and added to ice-cold MACS buffer (pH 7.4; PBS plus 2% FCS and 2 mM EDTA). Pre-warmed (37° C.) fresh digestion buffer was added to the remaining tissues. After rotation at 37° C. for 15 min, the mixture was vigorously mixed using a 1 ml pipette for 1 min. Supernatants from the two steps were combined and passed through 70 μm filters and stained for FACS (below).
Isolation of cells from the lamina propria (LP). The small intestines were opened longitudinally and washed in ice-cold PBS. For scRNA-seq, roughly 0.5 cm of fragments from each of the distal, middle and proximal regions without visible PPs were collected. Epithelial cells were dissociated by tissue rotation in pre-warmed (37° C.) PBS containing 10 mM EDTA at 37° C. for 15 min, followed by additional incubation on ice for 15 min. Tissues were then shaken vigorously. […]

B1: OVA (protein, UniProt P01012 2-386, looked up)
Ovalbumin: GSIGAASMEFCFDVFKELKVHHANENIFYCPIAIMSALAMVYLGAKDSTRTQINKVVRFDKLPGFGDSIEAQCGTSVNVHSSLRDILNQITKPNDVYSFSLASRLYAEERYPILPEYLQCVKELYRGGLEPINFQTAADQARELINSWVESQTNGIIRNVLQPSSVDSQTAMVLVNAIVFKGLWEKAFKDEDTQAMPFRVTEQESKPVQMMYQIGLFRVASMASEKMKILELPFASGTMSMLVLLPDEVSGLEQLESIINFEKLTEWTSSNVMEERKIKVYLPRMKMEEKYNLTSVLMAMGITDVFSSSANLSGISSAESLKISQAVHAAHAEINEAGREVVGSAEAGVDAASVSEEFRADHPFLFCIKHIATNAVLFFGRCVSP
- Dnajc7: LN (average fold change): 0.197
- Dusp1: LN (average fold change): −0.366
- Dusp5: LN (average fold change): −0.167
- Dusp18: LN (average fold change): −0.789
- Egr1: LN (average fold change): −0.987
- Emp3: LN (average fold change): 0.172
- Erdr1: LN (average fold change): −0.520
- Fabp2: LN (average fold change): −1.495
- Fam46c: LN (average fold change): −0.440
- Filip1l: LN (average fold change): −0.295
- Fkbp5: LN (average fold change): 0.573
- Fosb: LN (average fold change): −0.556
- Fosl2: LN (average fold change): −0.387
- Foxp1: LN (average fold change): −0.169
- Fyn: LN (average fold change): −0.230
- Gapdh: LN (average fold change): 0.206
- Gapt: LN (average fold change): −0.204
- Gnb1: LN (average fold change): −0.247
- Grasp: LN (average fold change): −0.617
- Gtf2i: LN (average fold change): 0.283
- H2-Aa: LN (average fold change): 0.220
- H2-Ab1: LN (average fold change): 0.238
- H2-Eb1: LN (average fold change): 0.228
- H2afj: LN (average fold change): 0.166
- Hes6: LN (average fold change): 0.290
- Hist1h1c: LN (average fold change): 0.792
- Hist2h4: LN (average fold change): 1.036
- Ier2: LN (average fold change): −0.265
- Ier5: LN (average fold change): 0.332
- Ifi30: LN (average fold change): 0.256
- Ifrd1: LN (average fold change): −0.459
- Igha: LN (average fold change): 0.596
- Igkc: LN (average fold change): 0.194
- Itpkb: LN (average fold change): −0.230
- Jun: LN (average fold change): 0.499
- Junb: LN (average fold change): −0.174
- Jund: LN (average fold change): −0.422
- Kdm6b: LN (average fold change): −0.488
- Klf4: LN (average fold change): −0.763
- Klk1: LN (average fold change): 0.243
- Kmt2e: LN (average fold change): −0.156
- Lag3: LN (average fold change): 0.315
- Lgals1: LN (average fold change): 0.174
- Lmnb1: LN (average fold change): −0.415
- Ly6c1: LN (average fold change): −0.173
- Lyz1: LN (average fold change): −1.858
- Mcl1: LN (average fold change): −0.199
- Mcpt1: LN (average fold change): 0.479
- Mcpt2: LN (average fold change): 0.749
- Mir142hg: LN (average fold change): −0.649
- Mpeg1: LN (average fold change): 0.185
- Napsa: LN (average fold change): 0.245
- Neat1: LN (average fold change): 0.364
- Nfkbia: LN (average fold change): −0.191
- Nfkbiz: LN (average fold change): −0.288
- Npc2: LN (average fold change): 0.166
- Nr4a1: LN (average fold change): −0.422
- Nr4a3: LN (average fold change): −0.556
- Odc1: LN (average fold change): −0.325
- Os9: LN (average fold change): 0.265
- Pik3ip1: LN (average fold change): 0.445
- Pim1: LN (average fold change): −0.188
- Plek: LN (average fold change): −0.205
- Plekho2: LN (average fold change): −0.406
- Pltp: LN (average fold change): 0.260
- Pnrc1: LN (average fold change): −0.212
- Ppia: LN (average fold change): 0.186
- Ppp1r16b: LN (average fold change): −0.419
- Ppp2ca: LN (average fold change): −0.356
- Psap: LN (average fold change): 0.202
- Ptp4a1: LN (average fold change): −0.201
- Ptpre: LN (average fold change): −0.452
- Rel: LN (average fold change): −0.305
- Rgs1: LN (average fold change): 0.548
